Measured values published in patent US20260286322A1, “PROTEIN TYROSINE P[…] DOMAIN PEPTIDE DIMER FOR NERVOUS SYSTEM REPAIR” (NervGen Pharma Corp., priority 2023, published 2026).
Ends that are not written are not given here.

Tests used:
[1] = In vitro stability in human plasma; type: in vitro ADME; conditions: after 30 minutes of incubation, 37° C., 1.6 μM
Description: (§1) Stability of Compound 7 (human variant) in physiological buffer (Hanks Balanced Salt Solution, HBSS) and in plasma was evaluated in comparison with Compound 3.
(§2) Compound stability was defined as % recovery of the compound after 5 min, 15 min, and 30 min of incubation in the presence of corresponding plasma.
(§3) 200 μL of 1.6 μM Compound 3 and Compound 7 solutions were incubated in the matrix (Hank's Balanced Salt Solution or plasma) at 37° C. for 0, 5, 15, or 30 minutes. The incubation was followed by addition of 200 μL acetonitrile, vortexing and subsequent acidification with 45 μL of pure acetic acid. After additional vortexing, the resulting mixture was centrifuged for 5 min at 14,000 rpm and the supernatant was collected for analysis.
(§4) Determination of the Compound 3 or Compound 7 levels in the supernatant samples prepared as described above was performed using an LC-MS/MS method as follows: 40 μL of 5 μM Compound 7 in 10% acetic acid aqueous solution was added to 160 μL of the supernatant. […]
(§5) Percentages of Compound 3 and Compound 7 recovery after 0 minutes (at the start of the experiment), 5 minutes, 15 minutes, and 30 minutes incubation time points were calculated by dividing the corresponding peak areas by the peak area obtained from the samples prepared with no incubation (0 minutes of incubation time). […]

[2] = In vitro stability in rat plasma; type: in vitro ADME; conditions: after 30 minutes of incubation, 37° C., 1.6 μM
Description: as §1, §2, §3, §4, §5

[3] = In vitro stability in physiological buffer (Hanks Balanced Salt Solution, HBSS); type: physicochemical; conditions: 30 minutes incubation, 37° C., 1.6 μM
Description: as §1, §2, §3, §4, §5

[4] = In vitro stability in dog plasma; type: in vitro ADME; conditions: after 30 minutes of incubation, 37° C., 1.6 μM
Description: as §1, §2, §3, §4, §5

[5] = Self-assembly by negative stain transmission electron microscopy; type: physicochemical; conditions: for colloidal structures from self-assembly in isotonic saline (TEM): 20 mg/mL in 0.9% (w/v) sodium chloride; for colloidal structures from self-assembly in water (TEM): 20 mg/mL in sterile water
Description: The patterns of self-assembly of Compound 7 and Compound 3 were analyzed by negative stain transmission electron microscopy.
Compound 3 and Compound 7 were dissolved in sterile water or in 0.9% (w/v) sodium chloride in sterile water to obtain a 20 mg/mL solution. Formvar/carbon coated grids were exposed to […] drops of the Compound 3 or Compound 7 solutions for approximately 1 minute, blotted and then exposed to […] drops of sterile water for 10 seconds, blotted again and then stained with 2% (w/v) aqueous uranyl acetate for 30 seconds, The stained samples were exposed to […] drops of sterile water for 10 seconds and blotted dry prior to examination by transmission electron microscopy.

| Substance | recovery rate in human plasma [1] | recovery rate in rat plasma [2] | % recovery in HBSS [3] | recovery rate in dog plasma [4] | colloidal structures from self-assembly in isotonic saline (TEM) [5] | colloidal structures from self-assembly in water (TEM) [5] |
| --- | --- | --- | --- | --- | --- | --- |
| TAT-Cys-human PTPRS wedge domain homodimer (GRKKRRQRRRCDMAEHTERLKANDSLKLSQEYESI; also: disulfide homodimer) [Compound 7] | 99% | 92% | 90% | 100% | larger-in-size helical colloidal particles | rod-shaped nanostructures |
| TAT-Cys-PTPRS (GRKKRRQRRRCDMAEHTERLKANDSLKLSQEYESI) [Compound 3] | low stability | low stability | about 42% | low stability | amyloid-like fibrillar meshwork | rod-shaped nanostructures |
